Data: US20190085093A1 (SEOUL NATIONAL UNIVERSITY R AND DB FOUNDATION, published 2019)
Ends that are not written are not given here.

T1: FCHo1-C-3×DDK (full-length wild-type FCHo1 with C-terminally fused 3×FLAG tag) (human, UniProt O14526 1-889)
T1 construct: Expressed in A549 cells and pulled down with anti-FLAG gel; also called FCHo1-FLAG; wt FCHo1; not shown: C-terminal 3×DDK (3×FLAG) tag of the pCMV6-C-3×DDK vector
T1 sequence (looked up): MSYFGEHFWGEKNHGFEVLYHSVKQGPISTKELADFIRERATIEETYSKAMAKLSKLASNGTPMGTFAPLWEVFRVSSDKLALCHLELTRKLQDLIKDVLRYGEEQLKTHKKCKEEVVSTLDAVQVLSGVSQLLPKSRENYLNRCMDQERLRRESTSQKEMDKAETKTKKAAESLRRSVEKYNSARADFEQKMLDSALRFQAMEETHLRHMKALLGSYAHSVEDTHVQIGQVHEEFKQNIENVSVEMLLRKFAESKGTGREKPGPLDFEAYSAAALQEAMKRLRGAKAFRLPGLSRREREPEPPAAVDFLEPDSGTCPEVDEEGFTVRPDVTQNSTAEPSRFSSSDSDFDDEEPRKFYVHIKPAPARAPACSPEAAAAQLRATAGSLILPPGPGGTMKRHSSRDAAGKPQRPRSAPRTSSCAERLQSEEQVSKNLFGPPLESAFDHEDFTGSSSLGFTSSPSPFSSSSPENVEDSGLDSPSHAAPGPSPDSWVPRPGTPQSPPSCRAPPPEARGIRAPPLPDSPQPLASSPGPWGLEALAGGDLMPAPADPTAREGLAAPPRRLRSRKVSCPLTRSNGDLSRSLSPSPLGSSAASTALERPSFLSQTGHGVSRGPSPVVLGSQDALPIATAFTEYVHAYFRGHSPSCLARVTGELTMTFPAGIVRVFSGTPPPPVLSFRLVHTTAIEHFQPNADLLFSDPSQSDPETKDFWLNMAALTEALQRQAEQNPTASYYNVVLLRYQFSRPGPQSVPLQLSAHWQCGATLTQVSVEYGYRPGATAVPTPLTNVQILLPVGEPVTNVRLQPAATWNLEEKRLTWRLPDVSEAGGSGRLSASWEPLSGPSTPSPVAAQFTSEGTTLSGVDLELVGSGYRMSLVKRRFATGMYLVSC


Key:
[1] = biological target: T2, Akt1 (UniProt P31749 1-480); assay: biotin peptide on streptavidin plate, cell lysate, detection with Akt1 antibody
T2 construct: Endogenous protein detected with an Akt1 antibody (LF-MA0245); also called endogenous Akt1
T2 sequence (P31749 whole entry): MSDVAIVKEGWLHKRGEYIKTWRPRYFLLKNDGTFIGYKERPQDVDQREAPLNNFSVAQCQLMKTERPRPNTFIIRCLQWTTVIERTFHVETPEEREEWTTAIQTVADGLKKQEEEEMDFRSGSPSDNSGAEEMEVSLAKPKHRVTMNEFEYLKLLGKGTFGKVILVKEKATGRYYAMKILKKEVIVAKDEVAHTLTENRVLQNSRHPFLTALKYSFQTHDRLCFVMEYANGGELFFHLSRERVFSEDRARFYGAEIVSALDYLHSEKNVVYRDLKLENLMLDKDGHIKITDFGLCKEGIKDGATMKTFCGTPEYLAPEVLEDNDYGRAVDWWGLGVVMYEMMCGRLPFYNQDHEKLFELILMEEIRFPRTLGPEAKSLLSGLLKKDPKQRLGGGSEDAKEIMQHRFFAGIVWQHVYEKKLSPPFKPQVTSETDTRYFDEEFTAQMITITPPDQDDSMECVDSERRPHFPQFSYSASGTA
Description: To confirm the binding affinity between Akt1 and Akt1 motif-containing FCHo1 amino acid sequence-derived peptides, biotin was conjugated to peptides to complete the synthetization. The peptides were reacted and attached to on the streptavidin-attached plate. After treating with the cell lysates, the binding affinity of the peptide and Akt1 was confirmed by the Akt1 antibody. The experiment process and its result of confirming in vitro binding affinity of Akt1 according to respective peptides derived from FCHo1 binding sites are illustrated in FIG. 28.

[2] = biological target: T2, Akt1; assay: immunofluorescence and PLA, A549 cells
Experimental: A549 cells were placed in 8-well chamber cover glasses or high-precision cover glasses and were fixed with 3% paraformaldehyde for 10 minutes at room temperature, permeabilized with 0.5% Triton® X-100 (Sigma-Aldrich) for 5 min, blocked for 30 minutes. Then, the cells were incubated with primary or secondary antibodies in blocking solution (PBS with 0.1% saponin and 3% BSA). Alexa Fluor 647 conjugated anti-rabbit secondary antibody and an oxygen scavenging system (0.5 mg/ml glucose oxidase, 40 μg/ml catalase, 10% glucose, pH 7.4) were used for stochastic optical reconstruction microscopy (dSTORM) imaging. Before imaging, 30 mM mercaptoethylamine ([…]; Sigma) was added to obtain a final thiol concentration of 10-200 mM. All dSTORM and SIM images were obtained from Carl Zeiss ELYRA PS.1 (super-resolution microscopy), and all CLSM images were obtained from the Carl Zeiss LSM710 (confocal laser scanning microscope).
Immunofluorescence and PLA assays confirmed whether the F-BAR domain binds to Akt1 at the ICB and plasma membrane and FCHo1 and Akt1 interact in the midbody. […] Interaction of FCHo1 and Akt1 in the midbody was confirmed by PLA, and Calmodulin 1 was used as an ICB marker. The results are illustrated in FIG. 17.

[3] = biological target: T1, FCHo1-C-3×DDK (full-length wild-type …); assay: co-immunoprecipitation with anti-FLAG antibody

binding result [1] | Binder | other results
binds | RRLRSRKVSC (also: biotin conjugated, position not given here, Attached to a streptavidin plate by its biotin) [peptide 562-571 of FCHo1 (RRLRSRKVSC), biotin-conjugated] | 
 | C-terminal (CT) fragment of FCHo1 cleaved at R563 (other, human, UniProt O14526 564-889, looked up, Fragment in cells, seen by immunofluorescence and PLA with the α584-804 antibody) LRSRKVSCPLTRSNGDLSRSLSPSPLGSSAASTALERPSFLSQTGHGVSRGPSPVVLGSQDALPIATAFTEYVHAYFRGHSPSCLARVTGELTMTFPAGIVRVFSGTPPPPVLSFRLVHTTAIEHFQPNADLLFSDPSQSDPETKDFWLNMAALTEALQRQAEQNPTASYYNVVLLRYQFSRPGPQSVPLQLSAHWQCGATLTQVSVEYGYRPGATAVPTPLTNVQILLPVGEPVTNVRLQPAATWNLEEKRLTWRLPDVSEAGGSGRLSASWEPLSGPSTPSPVAAQFTSEGTTLSGVDLELVGSGYRMSLVKRRFATGMYLVSC | binding result [2]: binds
 | CT-fragment (564-889aa) of FCHo1-HA (other, human, UniProt O14526 564-889, looked up, Cleavage product of FCHo1-HA in the cells, seen on the blot of the co-IP; not shown: C-terminal 3×HA tag) LRSRKVSCPLTRSNGDLSRSLSPSPLGSSAASTALERPSFLSQTGHGVSRGPSPVVLGSQDALPIATAFTEYVHAYFRGHSPSCLARVTGELTMTFPAGIVRVFSGTPPPPVLSFRLVHTTAIEHFQPNADLLFSDPSQSDPETKDFWLNMAALTEALQRQAEQNPTASYYNVVLLRYQFSRPGPQSVPLQLSAHWQCGATLTQVSVEYGYRPGATAVPTPLTNVQILLPVGEPVTNVRLQPAATWNLEEKRLTWRLPDVSEAGGSGRLSASWEPLSGPSTPSPVAAQFTSEGTTLSGVDLELVGSGYRMSLVKRRFATGMYLVSC | binding result [3]: no binding
binds | PPRRLRSRKVSC (also: biotin conjugated, position not given here, Attached to a streptavidin plate by its biotin) [peptide 560-571 of FCHo1 (PPRRLRSRKVSC), biotin-conjugated] | 
